Measurements: patent US20120020961A1 (INSTITUT NATIONAL DE LA SANTE ET DE LA RECHERCHE MEDICALE …, published 2012)
Values joined by “and” are separate entries in the source; they are usually repeats but may differ in a detail not shown here. Equal entries are not always repeated.

T1: mature human progastrin (human, UniProt P01350 22-101)
T1 construct: In the spheroid assays the progastrin is made by the human liver cancer cells themselves; also called hPG; PG
T1 sequence: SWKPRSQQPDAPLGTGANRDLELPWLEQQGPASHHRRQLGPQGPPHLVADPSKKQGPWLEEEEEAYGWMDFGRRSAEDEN


What follows are binders tested against T1, mature human progastrin (assay: measured KD; method not named at the table (Example 4 describes Proteon SPR, antibody captured by anti-mouse IgG, hPG injected)).

| Binder | Kd |
| --- | --- |
| murine anti-hPG MAb8 (antibody, V domains shown, Murine C-terminal anti-hPG monoclonal antibody, immunogen C1; also called hybridoma 1C10D3B9) VH: EVQLVESGGGLVKPGGSLKLSCAASGFTFTTYAMSWVRQTPEKRLEWVATISSGGTYTYYPDSVKGRFTISRDNAKNALYLQMSSLRSEDTAMYYCATQGNYSLDFWGQGTSLTVSS VL: DIVMTQAASSNPVTLGTSASISCRSSKSLRHTKGITFLYWYLQKPGQSPQLLIYQMSNLASGVPDRFSSSGSGTDFTLRISRVEAEDLGVYYCAQNLELPLTFGAGTKLELK | 0.1 nM and 0.108 nM |
| murine anti-hPG MAb13 (antibody, V domains shown, Murine C-terminal anti-hPG monoclonal antibody, immunogen C1; also called hybridoma 2C6C3C7) VH: EVQLVESGGGLVQPGGSLKLSCAASGFIFSSYGMSWVRQSPDRRLELVASINTFGDRTYYPDSVKGRFTISRDNAKNTLYLQMTSLKSEDTAIYYCARGTGTYWGQGTTLTVSS VL: not shown | 0.6 nM and 0.612 nM |
| murine anti-hPG MAb16 (antibody, V domains shown, Murine N-terminal anti-hPG monoclonal antibody, immunogen N2; also called hybridoma 1E9D9B6) VH: QVQLQQSGAELVKPGASVKLSCKASGYTFTSYYMYWVKQRPGQGLEWIGEINPSNGGTNFNEKFKSKATLTVDKSSSTAYMQLSSLTSEDSAVYYCTRGGYYPFDYWGQGTTLTVSS VL: not shown | 0.2 nM and 0.278 nM |
| murine anti-hPG MAb19 (antibody, V domains shown, Murine N-terminal anti-hPG monoclonal antibody, immunogen N2; also called hybridoma 1B3B4F11) VH: DVQLQESGPGLVKPSQSLSLTCTVTGYSITSDYAWNWIRQFPGNKLEWMGYISFSGYTSYNPSLKSRISVTRDTSRNQFFLQLTSVTTEDTATYYCAREVNYGDSYHFDYWGQGTIVTVSS VL: QLALTQSSSASFSLGASAKLTCTLSSQHRTYTIEWYQQQSLKPPKYVMEVKKDGSHSTGHGIPDRFSGSSSGADRYLSISNIQPEDEAIYICGVGDAIKGQSVFVFGGGTKVTVL | 0.7 nM and 0.779 nM |
| murine anti-hPG MAb3 (antibody, V domains shown, Murine N-terminal anti-hPG monoclonal antibody, immunogen N2; also called hybridoma 6B5B11C10) VH: EVQLQQSGTVLARPGASVKMSCKASGYIFTSYWVHWVKQRPGQGLEWIGGFYPGNSDSRYNQKFKGKATLTAVTSASTAYMDLSSLTNEDSAVYFCTRRDSPQYWGQGTTLTVSS VL: DVLMTQTPLSLPVSLGDQASISCRSSQSIVHSNGNTYLEWYLQKPGQSPKLLIYKVSNRFSGVPDRFSGSGSGTDFTLKISRLEAEDLGVYYCFQGSHVPFTFGGGTKLEIK | 6.4 nM |
| murine anti-hPG MAb4 (antibody, V domains shown, Murine N-terminal anti-hPG monoclonal antibody, immunogen N2; also called hybridoma 20D2C3G2) VH: QVQLQQSGAELMKPGASVKISCKATGYTFSSSWIEWLKQRPGHGLEWIGEFLPGSGSTDYNEKFKGKATFTADTSSDTAYMLLSSLTSEDSAVYYCATDGNYDWFAYWGQGTLVTVSA VL: DLVMTQTPLSLPVSLGDQASISCRSSQSLVHSSGVTYLHWYLQKPGQSPKLLIYKVSNRFSGVPDRFSGSGSGTDFTLKISRVEAEDLGVYFCSQSTHVPPTFGSGTKLEIK | 3.5 nM |
